Results: patent publication US9205136B2, “Human aminoacyl-tRNA synthetase polypeptides useful for the regulation of angiogenesis” (THE SCRIPPS RESEARCH INSTITUTE, priority 2000, dated 2015)
“Also recorded” adds a separate entry of the source.

Legend:
[1] = test system: MPs; experiment: MP TNFα production (ELISA of culture supernatant); assay type: cell-based, human; conditions: 1 nM sample protein, 14 hours
Experimental: Cells for the various cytokine assays described were prepared from acid citrate dextrose-treated blood of normal healthy volunteers. Human PMNs were isolated from the blood by centrifugation (700×g) over Histopaque 1077 and 1119 (Sigma). […] This procedure was repeated twice. Human MPs were isolated by centrifugation on Histopaque 1077 (Sigma). The mononuclear fraction was obtained, washed twice in Hanks' balanced salt solution, resuspended in RPMI-1640 medium (Sigma) containing 10% heat-inactivated fetal bovine serum (Sigma), plated in tissue culture flasks, and incubated in a 6% CO2 incubator at 37° C. for 1-2 hours (Kumagai et al., 1979, J. Immunol. Methods 29:17-25). Nonadherent cells were removed by washing the flasks three times with Hanks' balanced salt solution, and adherent cells were harvested by incubation with calcium-magnesium free phosphate-buffered saline containing 2 mM EDTA for 15 minutes at 4° C., followed by extensive washing.
MP TNFα production was examined following incubation of 10^5 MPs with 1 nM of sample protein for 14 hours. Aliquots of the culture supernatant were then assayed for TNFα production using a TNFα enzyme-linked immunosorbent assay kit (Sigma). Each determination shown in FIG. 2 represents the mean of four measurements from at least three independent experiments.

[2] = test system: PMNs; experiment: 125I-human mini TyrRS binding and competition assay on PMNs; conditions: 10 nM 125I-mini TyrRS, 200-fold molar excess of unlabeled ligand, on ice 2 hours
Summary of the method: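 Human PMNs (2×10^6) in RPMI-1640 with 20 mM Hepes pH 7.4 and 10 mg/ml BSA were incubated with radioiodinated mini TyrRS. Bound and free label were separated by centrifugation through a 10% sucrose/PBS cushion, and cell-associated radioactivity was counted by scintillation.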

[3] = molecular target: T1, type A IL-8 receptor (Homo sapiens, UniProt P25024); experiment: Binding to RBL2H3 cells transfected with IL-8 receptor type A; conditions: read-out: Kd on cells expressing the type A IL-8 receptor; transfected RBL2H3 rat basophilic leukemia cells
T1 construct: expressed in transfected cells; host or cells: RBL2H3 rat basophilic leukemia cells
T1 sequence (P25024 1-350): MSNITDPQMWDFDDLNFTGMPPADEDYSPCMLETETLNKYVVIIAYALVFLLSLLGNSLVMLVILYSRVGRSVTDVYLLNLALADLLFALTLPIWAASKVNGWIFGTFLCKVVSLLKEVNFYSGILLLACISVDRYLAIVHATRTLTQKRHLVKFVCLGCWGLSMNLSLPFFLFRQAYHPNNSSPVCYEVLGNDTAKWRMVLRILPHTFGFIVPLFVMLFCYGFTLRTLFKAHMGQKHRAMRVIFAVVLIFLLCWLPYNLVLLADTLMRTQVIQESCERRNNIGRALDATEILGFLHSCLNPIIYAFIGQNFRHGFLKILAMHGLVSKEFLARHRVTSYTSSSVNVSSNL
Experimental: Following incubation, cells were separated from unbound radioactivity as described herein.
Untransfected RBL2H3 cells express neither the type A nor type B receptors.

[4] = test system: human umbilical vein endothelial cells (HUVECs); experiment: HUVEC migration assay (modified Boyden chamber); assay type: cell-based; conditions: 50 nM TyrRS molecule or 0.5 nM VEGF165, 6 hours
Experimental: In contrast, α-chemokines lacking the ELR motif act as angiostatic factors (id.). In order to evaluate the angiogenic activity of TyrRS, which contains the ELR motif, human full-length TyrRS and human mini TyrRS were first examined for their ability to induce endothelial cell migration. Such angiogenic assays were performed using human umbilical vein endothelial cells (HUVECs) (Clonetics, Walkersville, Md.). Cells were maintained in EGM-2® BULLETKIT® medium (Clonetics) in an atmosphere of 6% CO2 at 37° C. according to the supplier's instructions.
Cell migration assays were performed using the modified Boyden chamber (6.5 mm Transwells) with polycarbonate membranes (8.0 μm pore size) (Costar Corp., Cambridge, Mass.) (Masood et al., 1999, Blood 93:1038-44). Wells were coated overnight with 25 μg/mL human fibronectin (Biosource International, Camarillo, Calif.) in PBS and then allowed to air-dry. HUVECs were suspended in Dulbecco's modified Eagle's medium (DMEM) (Gibco-BRL, Gaithersburg, Md.) containing 0.1% BSA (Sigma) and 2×10^5 cells per well were added to the upper chamber. The chemotactic stimulus (50 nM of a given TyrRS molecule or 0.5 nM of human vascular endothelial growth factor-165 (VEGF165) (Biosource International, Camarillo, Calif.)) was placed in the lower chamber, and the cells were allowed to migrate for 6 hours at 37° C. in a 6% CO2 incubator. After incubation, non-migrant cells were removed from the upper face of the Transwell membrane with a cotton swab and migrant cells, those attached to the lower face, were fixed in methanol and visualized with the HEMACOLOR® stain set (EM Diagnostic Systems, Gibbstown, N.J.). Migrating cells were counted in high-power fields (HPFs). HUVECs were suspended in media with the inhibitor for 30 minutes before placement in the chamber. Each determination shown in FIG. 16 represents the average of nine HPF measurements.

[5] = test system: chick chorioallantoic membrane (CAM); experiment: In vivo angiogenesis assay in chick chorioallantoic membrane (CAM); conditions: 250 ng TyrRS molecule or 25 ng VEGF165 on filter disk, 72 hours
Experimental: In vivo angiogenesis assays were conducted in chick chorioallantoic membrane (CAM) (Nicolaou et al., 1998, Bioorg. Med. Chem. 6:1185-208). Ten-day-old chick embryos were purchased from Mcintyre Poultry (Lakeside, Calif.) and were incubated at 37° C. and 70% humidity. A small hole was made with a small crafts drill (Dremel, Emerson Electric, Racine, Wis.) directly over the air sac at the end of the egg. The embryos were candled to determine a location to drill a second hole directly over embryonic blood vessels. […] A window was cut in the eggshell over the dropped CAM, exposing the CAM to direct access for experimental manipulation. Cortisone acetate-treated 5 mm filter disks were soaked with a particular protein sample (25 ng of VEGF165 or 250 ng of a given TyrRS molecule) and the filter disks added directly to the CAMs, which were relatively devoid of preexisting blood vessels. The windows were sealed with sterile tape and incubated at 37° C. […] After 72 hours, the CAM tissue associated with the filter disk was harvested and quantified using a stereomicroscope. Angiogenesis was assessed as the number of visible blood vessel branch points within the defined area of the filter disks. Each determination shown in FIG. 17 represents the mean from 5-8 embryos.

B1: mini TyrRS: truncated TyrRS, residues 1-364 of full-length TyrRS, amino-terminal catalytic domain (protein)
chain: MGDAPSPEEKLHLITRNLQEVLGEEKLKEILKERELKIYWGTATTGKPHVAYFVPMSKIADFLKAGCEVTILFADLHAYLDNMKAPWELLELRVSYYENVIKAMLESIGVPLEKLKFIKGTDYQLSKEYTLDVYRLSSVVTQHDSKKAGAEVVKQVEHPLLSGLLYPGLQALDEEYLKVDAQFGGIDQRKIFTFAEKYLPALGYSKRVHLMNPMVPGLTGSKMSSSEEESKIDLLDRKEDVKKKLKKAFCEPGNVENNGVLSFIKHVLFPLKSEFVILRDEKWGGNKTYTAYVDLEKDFAAEVVHPGDLKNSVEVALNKLLDPIREKFNTPALKKLASAAYPDPSKQKPMAKGPAKNSEPEEVILEHHHHHH
modifications: His6 tag; Human mini TyrRS in pET20B
notes: truncated TyrRS, residues 1-364 of full-length TyrRS, amino-terminal catalytic domain
- MP TNFα production [1]: did not stimulate production
- inhibition of 125I-mini TyrRS binding to PMNs by unlabeled ligand [2]: inhibited the binding; also recorded: inhibited by the presence of excess amounts of unlabeled mini TyrRS
- Kd [3]: 8 nM
- HUVEC chemotaxis [4]: stimulated induction of HUVEC chemotaxis
- in vivo angiogenesis in chick CAM (blood vessel branch points) [5]: induced angiogenesis
